Like-named read-outs stand apart in the source and are kept apart here.

A short description of data set [1]: TTA-ADH coupled assay, screen of purified TTAs on 2-nitro-benzaldehyde. The data set is classed as biochemical. Conditions: substrate 3, TTA-ADH coupled assay. As for the experimental part: (§1) High-throughput screening of purified TTAs was performed with a TTA-ADH coupled assay using purified TTA and commercially available alcohol dehydrogenase from S. cerevisiae purchased from MilliporeSigma. Aldehyde stocks were prepared in 50-100 mM solutions in DMSO or acetonitrile. Reaction mixtures were prepared in a 96-well plate with 100 μL of 100 mM phosphate buffer pH 7.5, 0.5 mM NADH, 0.4 mM PLP, 15 mM MgCl2, and 100 mM L-Thr with the addition of 0.25 mM to 1 mM aldehyde depending on the background absorbance at 340 nm (Table 4), 10 U ScADH, and 0.25 μM purified TTA unless otherwise specified. Reactions were initiated with the addition of enzyme. […] The following controls were included for every assay: reaction mixture without aldehyde, without TTA, and without enzyme (TTA or ADH). Rates were calculated by identifying the linear region at the beginning of the kinetic run and converting the depletion in absorbance to the depletion of mM NADH using an NADH standard curve.
Once purified, we identified the putative TTAs with high activity and further characterized them for their L-Thr affinity and substrate scope. We first screened each purified enzyme using the TTA-ADH coupled assay with 2-nitro-benzaldehyde, 3, the best performing substrate from the screen of ObiH that was not a substrate of the ScADH. […] With this evidence as well as well-aligned, predicted AlphaFold structures, we assumed the impact of the SUMO tag would be minimal for all TTAs screened and moved forward with additional enzyme characterization.

Data set [2] in a line: TTA-ADH coupled assay at different L-Thr concentrations (apparent L-Thr KM and kcat). The data set is classed as biochemical. As to conditions: for L-Thr kcat compared with ObiH: phenylacetaldehyde as the aldehyde substrate; for Km: apparent, phenylacetaldehyde (14) as aldehyde, ADH coupling, non-linear regression. As for the experimental part: as §1
We next sought to determine the affinity of these enzymes for L-Thr, which we obtained by performing the TTA-ADH coupled assay at different L-Thr concentrations (FIG. 16b). […] Two differences between our assays were the substrate, phenylacetaldehyde (14) instead of 4-nitrophenylacetylaldehyde (15), and the assay format, ADH coupling rather than a discontinuous HPLC assay. Because a live cellular environment would also contain alcohol dehydrogenases for reduction of acetaldehyde, it is possible that the KM values that we are measuring using the TTA-ADH coupled assay may be more realistic for our envisioned applications.

Data set [3] is described as follows: TTA-ADH coupled assay, substrate scope of TTAs on aromatic aldehydes. Format: biochemical. Conditions: for activity on a set of aromatic aldehyde substrates (substrate scope): substrates 1, 3, 6, 7, 8, 12, 15. As for the experimental part: as §1
We specifically selected substrates with ring substituents with different electron withdrawing properties (1, 3, 6, 7, 8), substituent size (12), and aldehyde chain length (15) to compare the activity of the putative TTAs to ObiH. We were also encouraged by the activity of PbTTA and KaTTA on vanillin and protocatechualdehyde which are substrates that would form products like commercially available therapeutic, Droxidopa (FIG. 18).
To explore the possibility that DbTTA and TmTTA are TTAs active on other related aldehydes, we sought to examine their activity with L-Thr and aldehyde substrates with different ring substituent position (2), bulkier, hydrophobic chemistry (10), and aldehyde chain length (14) using the TTA-ADH coupled assay.

Data set [4] in a line: In vitro assay over 20 h with HPLC analysis (amino acid substrate specificity, diastereomeric excess). As to conditions: 3 as aldehyde substrate. The data set is classed as biochemical. The procedure:
Metabolites of interest were quantified via high-performance liquid chromatography (HPLC) using an Agilent 1260 Infinity model equipped with a Zorbax Eclipse Plus-C18 column. To quantify aldehyde and β-OH-nsAAs, an initial mobile phase of solvent A/B=95/5 was used (solvent A, water+0.1% TFA; solvent B, acetonitrile+0.1% TFA) and maintained for 5 min. A gradient elution was performed (A/B) as follows: gradient from 95/5 to 50/50 for 5-12 min, gradient from 50/50 to 0/100 for 12-13 min, and gradient from 0/100 to 95/5 for 13-14 min. A flow rate of 1 mL min-1 was maintained, and absorption was monitored at 210, 250 and 280 nm.
We performed an in vitro assay over 20 h using 3 as the aldehyde substrate and either L-Thr, Glycine (Gly), or L-Serine (L-Ser) as the candidate amino acid. Since the TTA-ADH coupled assay is specific to L-Thr, we analyzed TTA activity via HPLC with a chemically synthesized β-OH-nsAA standard for the assumed product from 3.

For data set [5] the following is noted: literature value; ObiH: 4-nitrophenylacetylaldehyde (15), discontinuous HPLC assay; read-out: reported L-Thr KM; cited from earlier work.

B1: PiTTA: TTA, SEQ ID NO: 31, Pseudomonas sp. Irchel s3a18 (protein)
chain: MKQDESNVGPVIDWLAQTLGQDYKYRQDTLSLTANENYPSELVRLTSGSTAGAFYHCSFPFPVPLGEWHFPEPGQMNEIADDLRGLAKRMMGAQAFDWRPNGGSPAEQALMLAACKQGEGFVHFAHRDGGHFALEQLATKMGIEIFHLPVDPQSLLIDVAKLDDMVRRNPHIRIVILDQSFKLRWQPLAEIRAILPDSCTLTYDMSHDGGLILGGVFDSPLACGADIAHGNTHKTIPGPQKGFIAFKSAQHPLLVETSLWVCPHLQSNCHAELLPSMWAAFKEMEAFGPAYAHQMVRNAKALANQLHELGLNVSGESFGFTETHQVHFAVGDLQQALSMCVDSLHAGGIRSTNIEIPGKPGMHGIRLGVQAMTRRGMKEDDFRRVAGLIADLYFKRTEPARVASKVKELLGDFPLAPLAYSFDQQIDESRRRLLERGIQR
modifications: Pseudomonas_sp._Irchel_s3a18
notes: Irchel s3a18
On to B1, for which the “activity on 2-nitro-benzaldehyde relative to ObiH” value in data set [1] is “comparable to or better than ObiH”. Further, the “L-Thr kcat compared with ObiH” value in data set [2] is on record as “higher measured L-Thr kcat values than ObiH”. Further, in data set [3], the “activity on a set of aromatic aldehyde substrates (substrate scope)” value was “relatively selective”. For the same molecule, the “β-OH-nsAA formation using L-Ser or Gly” value in data set [4] is “no β-OH-nsAA formation”.

B2: KaTTA: L-threonine transaldolase, SEQ ID NO: 1, Kitasatospora aureofaciens, WP_033354341 (protein, listed as Kitasatospora aureofaciens)
chain: MDVLAALERKHSLNLFPIENRLSPRAAAALASDAVNRYPYSETDVAVYGDVSDLNAVYDHCVSLTKEFYGARHAYVQFLSGLHTMHTVLTAVTPPGGRVMVIAPEDGGHYATVTICQGFGYRVEYVPFDRQTLEIDYTALAERTAEHPADVIYLDASTVLRMPDARALRAAAPGAVLCLDASHLLGLLPAAPGTLVLDAGFDSISGSTHKTLPGPQKGLLVTNSDAIAEQVGARIPFTASSSHSASVGSLAITLEELLPHRGDYARQVIANARELARQLAARGFDVAGEAFGFTDTHQVWVHHPEGNTPHEWGRLLTATDIRTTTVVLPSTARSGLRLGTQELTRWGMKEDDMTTVAELLARLLLRGEQSRSVAADVRDLARSFPGVAFADRPAPLAVA
As for B2, the “activity on 2-nitro-benzaldehyde relative to ObiH” value in data set [1] was “comparable to or better than ObiH”. Besides, in data set [2], the Km was 19.1 mM. In addition, the “activity on vanillin and protocatechualdehyde” value in data set [3] (TTA-ADH coupled assay) is given as “activity”. Besides, the “β-OH-nsAA formation using L-Ser or Gly” value in data set [4] is “no β-OH-nsAA formation”.

B3: BuTTA: TTA, SEQ ID NO: 34, Burkholderia ubonensis (protein, listed as Burkholderia ubonensis)
chain: MTDFAQAVVNPFVDEQRKSRLVEKISNIFDSLHSDFALDNLYRASHLSLTASENYPSRFVRTLGAGMQGGFYEFAPPYAANPGEWYFPDSGAQSSLVEKLASLGKQLFEANSFDWRPNGGSAAEQAVLLGTCARGDGFVHFAHKDGGHFALEELAQKVGVSIFHLPIEEKSLLIDVDRLATLIKDNPHIKLVILDQSFKLRWQPLLQIRQALPESVVLSYDASHDGGLIIGECLPQPLLFGADIVHGNTHKTIPGPQKGYIAFKNVDHPAMKHVSDWVCPHLQSNSHAELIAPMYIALVEMSLYGRSYAEQVIKNAKALAHALHAEGVRVSGESFGFTETHQVHVVVGSERKALELVTGTLALAGIRCNNIEIPGANGLFGLRLGVQALTRRGIKEHGMAEVARFLVRLILKNESPTAIRNEIASFLESYPINTLHYSLDAHYYTPSGIKLMEEVIA
With B3, the “activity on 2-nitro-benzaldehyde relative to ObiH” value in data set [1] was “comparable to or better than ObiH”. In data set [2], the “L-Thr kcat compared with ObiH” value is recorded as “higher measured L-Thr kcat values than ObiH”. In addition, the “activity on a set of aromatic aldehyde substrates (substrate scope)” value in data set [3] is “relatively selective”. In data set [4], the “β-OH-nsAA formation using L-Ser or Gly” value is on record as “no β-OH-nsAA formation”.

B4: CsTTA: TTA, SEQ ID NO: 33, Chitiniphilus shinanonensis (protein, listed as Chitiniphilus shinanonensis)
chain: MTRTTPQARHVVERLNSVLGQDYRYREDCLSLTANENYPSALVRLAGSATAGAFYHCSFPFEVPPGEWYFPESGRMGELAQQLNELGRSLLGAGTFDWRPNGGSPAEQALMLAACKHGEGMVHFAHRDGGHFALENLAQKAGIDIFHLPVDPQTLLIDVARLDELVRRNPQIRIVILDQSFKLRWQPLAAIRKVLPPSCTLTYDTSHDGGLIMGGVFDSPLHCGADVIHGNTHKTVPGPQKGYIAFKSAEHPLLVDTSLWLCPHLQSNCHAELLPPMWVAFKEMEAFGHDYAPQVARNAKALAGHLHRLGFEVSGEAFGFTETHQVHFAVGDLQQALDLCMNTLHRGGIRSTNIEIPGKPGIQGIRLGVQAMTRRGLREDDFEQVARFIADLHFRKADPAGVAAQVAEFLRAFPLAPLHYSFDQELDHELLQSLIGEALR
Take B4: the “activity on 2-nitro-benzaldehyde relative to ObiH” value in data set [1] is “comparable to or better than ObiH”. Also, the “L-Thr kcat compared with ObiH” value in data set [2] is “higher measured L-Thr kcat values than ObiH”. Further, the “β-OH-nsAA formation using L-Ser or Gly” value in data set [4] is listed as “no β-OH-nsAA formation”.

B5: ObiH: known L-threonine transaldolase of obafluorin biosynthesis, SEQ ID NO: 30, Pseudomonas fluorescens, ARJ35753.1 (protein)
chain: MSNVKQQTAQIVDWLSSTLGKDHQYREDSLSLTANENYPSALVRLTSGSTAGAFYHCSFPFEVPAGEWHFPEPGHMNAIADQVRDLGKTLIGAQAFDWRPNGGSTAEQALMLAACKPGEGFVHFAHRDGGHFALESLAQKMGIEIFHLPVNPTSLLIDVAKLDEMVRRNPHIRIVILDQSFKLRWQPLAEIRSVLPDSCTLTYDMSHDGGLIMGGVFDSPLSCGADIVHGNTHKTIPGPQKGYIGFKSAQHPLLVDTSLWVCPHLQSNCHAEQLPPMWVAFKEMELFGRDYAAQIVSNAKTLARHLHELGLDVTGESFGFTQTHQVHFAVGDLQKALDLCVNSLHAGGIRSTNIEIPGKPGVHGIRLGVQAMTRRGMKEKDFEVVARFIADLYFKKTEPAKVAQQIKEFLQAFPLAPLAYSFDNYLDEELLAAVYQGAQR
modifications: Psuedomonas fluorescenes
Regarding B5, the Michaelis constant (Km) in data set [2] is 29.5 mM; in data set [5], 40.2 ± 3.8 mM.

Source of the values: patent US20250215467A1, “L-THREONINE TRANSALDOLASES AND USES THEREOF” (University of Delaware, priority 2022, published 2025).
